Results reported in patent publication US20210139581A1 (Alector, published 2021).
Where a chain is given by its changes, count along the chain named. Like-named read-outs stand apart in the source and are kept apart here.

B1: AB-H14 (antibody, V domains shown)
VH: QVQLVQSGAEVKKPGASVKVSCKASGYTFTDYNLHWVRQAPGQGLEWIGFIYPSNGITGYAQKFQGRVTMTVDTSTSTVYMELSSLRSEDTAVYYCARSTVDYFDYWGQGTLVTVSS
VL: DIQMTQSPSSLSASVGDRVTITCRASQSVSTSTYSYMHWYQQKPGKAPKLLIKYASNLESGVPSRFSGSGSGTDFTLTISSLQPEDFATYYCQHSWEIPLTFGQGTKLEIK
notes: Humanized variant of murine 2F5.1
B2: AB-H63 (antibody, V domains shown)
VH: B1 VH
VL: DIVLTQSPDSLAVSLGERATINCRASQSVSTSTYSYMHWYQQKPGQPPKLLIKYASNLESGVPDRFSGSGSGTDFTLTISSLQAEDVAVYYCQHSWEIPLTFGQGTKLEIK
notes: as for B1
B3: AB-64.6 (antibody, V domains shown)
VH: B1 VH with V20I, L34Y, V68A, M70L, T74N, V79A, T100D, V113L
VL: B2 VL with S28D, N57F
B4: AB-64.2 (antibody, V domains shown)
VH: B1 VH with V20I, V68A, M70L, T74N, V79A, V113L
VL: B2 VL with A25V, S28D
B5: AB-H9 (antibody, V domains shown)
VH: B1 VH with V11L, G44R, A61S, R67K, V68A, M70L, T76A, V79A, L112T
VL: B1 VL with K53Y
notes: as for B1
B6: AB-H2 (antibody, V domains shown)
VH: B1 VH
VL: B1 VL with K53Y
notes: as for B1
B7: AB-H15 (antibody, V domains shown)
VH: B1 VH with V20I, V68A, M70L, V79A, V113L
VL: B1 VL
notes: as for B1
B8: AB-H65 (antibody, V domains shown)
VH: B1 VH with I48M, V72R, L112T
VL: B2 VL
notes: as for B1
B9: AB-64.8 (antibody, V domains shown)
VH: B1 VH with V20I, L34Y, G66H, V68A, M70L, T74N, V79A, T100D, V113L
VL: B2 VL with S28D
B10: AB-64.7 (antibody, V domains shown)
VH: B1 VH with V20I, L34Y, V68A, M70L, T74N, V79A, T100D, V113L
VL: B2 VL with S30G, E59N, W96E
B11: AB-H64 (antibody, V domains shown)
VH: B1 VH with V20I, V68A, M70L, T74N, V79A, V113L
VL: B2 VL
notes: Humanized variant of murine 2F5.1; also called parental humanized antibody
B12: AB-H66 (antibody, V domains shown)
VH: B1 VH with V20I, V68A, M70L, V79A, L112T
VL: B2 VL
notes: as for B1
B13: Chimeric Ab (antibody, V domains shown)
VH: EVQLQQSGPELVKPGASVKISCKASGYTFTDYNLHWVKLSHGKSLEWIGFIYPSNGITGYNQKFKNKATLTVDNSSSTAYMELRSLTSEDSAVYYCARSTVDYFDYWGQGTTLTVSS
VL: DIVLTQSPASLAVSLGQRATMSCRASQSVSTSTYSYMHWYQQKPGQPPKLLIKYASNLESGVPARFSGSGSGTDFTLNIHPVEEEDTATYYCQHSWEIPLTFGAGTKLELK
notes: Chimeric antibody with the variable regions of murine 2F5.1; also called parental antibody; comparator antibody

Key:
[1] = biological target: T1, human CD33 on primary human monocyte-derived dendritic cells (human, UniProt P20138 18-364); assay: cell-based or functional assay
[2] = biological target: T1, human CD33 on primary human …; assay: cell-based or functional assay; remark: listed apart in the source
human CD33 [3] = biological target: T2, human CD33 (human, UniProt P20138 18-259, limits assumed); assay: BLI (ForteBio), Fab 100 nM on immobilized CD33
T2 construct: Human CD33 immobilized on the BLI sensor tip or the BIAcore C1 chip; also called Siglec-3
Protocol: (§1) The affinities (KD) of the humanized antibodies for human CD33 were measured for each antibody by BioLayer Interferometry in a ForteBio assay according to standard techniques (Estep et al. (2013) MAbs 5(2): 270-8). […] The assay was carried out at room temperature.

human CD33 [4] = biological target: T2, human CD33; assay: BLI (ForteBio), Fab 100 nM on immobilized CD33; remark: listed apart in the source
[5] = biological target: T1, human CD33 on primary human …; assay: cell-based or functional assay; remark: listed apart in the source
[6] = biological target: T1, human CD33 on primary human …; assay: cell-based or functional assay; remark: listed apart in the source
human CD33 [7] = biological target: T2, human CD33; assay: SPR (BIAcore), Fab over CD33 on C1 chip
Protocol: (§2) The affinity parameters for 10 of the 88 humanized antibodies (AB-H1, AB-H3, AB-H6, AB-H11, AB-H22, AB-H24, AB-H26, AB-H63, AB-H64, and AB-H71) were measured in a separate experiment by a more sensitive technique, surface plasmon resonance (BIAcore), and compared to Chimeric Ab and Chimeric Ab #2. BIAcore measurements were performed as follows: human CD33 was immobilized on the surface of a C1 chip, and Fabs were injected for 300 s to monitor association, followed by a 900 s flow in running buffer to monitor dissociation. The Fabs were measured at 5 concentrations: a high concentration of 27 nM and 3-fold serial dilutions.

[8] = biological target: T1, human CD33 on primary human …; assay: cell-based or functional assay; remark: listed apart in the source
human CD33 [9] = biological target: T2, human CD33; assay: BLI (ForteBio), Fab 100 nM on immobilized CD33; remark: listed apart in the source
Protocol: as §1
The affinities of AB-H64 and its variants (Table 5) for human CD33 were measured by Fortebio assay according to the method described in Example 1 above.

[10] = biological target: T1, human CD33 on primary human …; assay: cell-based or functional assay; remark: listed apart in the source
human CD33 [11] = biological target: T2, human CD33; assay: SPR (BIAcore), Fab over CD33 on C1 chip; remark: listed apart in the source
Protocol: as §2
In a separate experiment, as determined by the more sensitive BIAcore technique, affinity parameters of affinity matured antibodies derived from the humanized antibody AB-H64 were measured and were directly compared to that of the Chimeric Ab, according to the method described in Example 1 above.

T1 sequence (P20138 18-364): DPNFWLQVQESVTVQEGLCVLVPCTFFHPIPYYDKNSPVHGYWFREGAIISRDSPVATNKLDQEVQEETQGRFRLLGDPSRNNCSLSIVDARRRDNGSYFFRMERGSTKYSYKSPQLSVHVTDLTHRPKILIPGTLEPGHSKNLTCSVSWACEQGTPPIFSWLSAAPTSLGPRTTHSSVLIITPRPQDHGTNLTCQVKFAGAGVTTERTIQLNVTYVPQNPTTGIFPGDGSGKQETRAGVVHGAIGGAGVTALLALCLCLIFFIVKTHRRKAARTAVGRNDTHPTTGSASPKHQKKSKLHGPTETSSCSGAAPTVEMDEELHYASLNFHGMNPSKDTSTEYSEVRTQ
T2 sequence (P20138 18-259 limits assumed): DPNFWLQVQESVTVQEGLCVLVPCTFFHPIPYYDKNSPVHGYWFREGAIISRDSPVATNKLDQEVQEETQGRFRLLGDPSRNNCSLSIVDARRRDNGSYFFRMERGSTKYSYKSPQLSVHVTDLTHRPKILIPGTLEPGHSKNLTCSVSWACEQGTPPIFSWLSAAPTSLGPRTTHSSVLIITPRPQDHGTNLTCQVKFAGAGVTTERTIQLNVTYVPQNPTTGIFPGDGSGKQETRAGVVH

Binder	Receptor downregulation (EC50) [2] [nM]	Kd (human CD33 [3]) [nM]	Maximal Downregulation (% CD33 remaining) [8] [%]	Receptor downregulation (EC50) [8] [nM]	Fold affinity improvement over parental Ab (AB-H64) (human CD33 [9]) [fold]	Kd (human CD33 [9]) [nM]	Receptor downregulation (EC50) [10] [nM]	Fold Change to AB-H64 (human CD33 [11]) [fold]	Fold Change to Chimeric Ab (human CD33 [11]) [fold]	Kd (human CD33 [11]) [nM]	koff (human CD33 [11]) [s⁻¹]	kon (human CD33 [11]) [M⁻¹ s⁻¹]	other results
B1	0.042	3.42											Maximal Downregulation (% CD33 remaining) [1]: 15%; Receptor downregulation (EC50) [1]: 0.151 nM; Kd (human CD33 [4]): 2.91 nM; koff (human CD33 [4]): 0.00115 s⁻¹; kon (human CD33 [4]): 397000 M⁻¹ s⁻¹
B2	0.0041	4.07											Maximal Downregulation (% CD33 remaining) [5]: 20.3%; Receptor downregulation (EC50) [5]: 0.032 nM; Maximal Downregulation (% CD33 remaining) [6]: 16.1%; Receptor downregulation (EC50) [6]: 0.0726 nM; Kd (human CD33 [4]): 2.72 nM; koff (human CD33 [4]): 0.00168 s⁻¹; kon (human CD33 [4]): 615000 M⁻¹ s⁻¹; Fold Change to Chimeric Ab (human CD33 [7]): 0.46 fold; Kd (human CD33 [7]): 3.53 nM; koff (human CD33 [7]): 0.00263 s⁻¹; kon (human CD33 [7]): 744000 M⁻¹ s⁻¹
B3			30.6	0.0113	8.52	0.336	0.034	341	258	0.0063	3.95e-05	6.26e+06	
B4			26.8	0.0166	3.64	0.786	0.0311	46.9	35.5	0.0458	0.000137	3e+06	
B5	0.0234	3.5											
B6	0.0517	3.24											
B7	0.0586	5.45											
B8	0.0481	8.57											
B9					10.3	0.277	0.0272	321	242	0.00671	4.8e-05	7.15e+06	
B10			31.2	0.017	11.9	0.24	0.0306	216	163	0.00997	8.75e-05	8.78e+06	
B11	0.0137	4.08	22.4	0.029		2.86	0.0366		0.76	2.15	0.00221	1.03e+06	Maximal Downregulation (% CD33 remaining) [5]: 22.4%; Receptor downregulation (EC50) [5]: 0.029 nM; Fold Change to Chimeric Ab (human CD33 [7]): 0.76 fold; Kd (human CD33 [7]): 2.15 nM; koff (human CD33 [7]): 0.00221 s⁻¹; kon (human CD33 [7]): 1.03e+06 M⁻¹ s⁻¹
B12	0.0393	5.54											
B13	0.0743	5.22	24.1	0.0869						1.63	0.00162	995000	Maximal Downregulation (% CD33 remaining) [5]: 24.1%; Receptor downregulation (EC50) [5]: 0.0869 nM; Kd (human CD33 [7]): 1.63 nM; koff (human CD33 [7]): 0.00162 s⁻¹; kon (human CD33 [7]): 995000 M⁻¹ s⁻¹
